Measurements published in the supplement of paper PMC9170038.

System: K4 kissing-loop RNA reporter
Assay: apparent KD of K4 kissing-loop reporter; higher = weaker reporter binding
Settings: Eterna round: R107
Method: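 RNA-MaP round R107: designed RNA switches with theophylline, tryptophan, arginine or FMN aptamers are transcribed on-chip within common flanks. They are titrated with a labelled K4 kissing-loop RNA reporter in RNA-MaP buffer (100 mM Tris pH 7.5, 80 mM KCl, 4 mM MgCl2), without ligand or with the indicated ligand. Median apparent KD per design.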

[1] = input ligand: theophylline 20 uM
[2] = input ligand: tryptophan 2.4 mM
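Also: bound reporter read as fluorescence of individual clusters on recovered sequencing chips by microscopy, with normalized cluster intensities fitted with a binding model.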

| Sequence | apparent KD of K4 kissing-loop reporter (input ligand: FMN 200 uM) [nM] | apparent KD of K4 kissing-loop reporter (input ligand: arginine 13.2 mM) [nM] | apparent KD of K4 kissing-loop reporter (input ligand: none) [nM] | apparent KD of K4 kissing-loop reporter [1] [nM] | apparent KD of K4 kissing-loop reporter [2] [nM] |
| --- | --- | --- | --- | --- | --- |
| CUUCUCCUUCCAAUCUCGGCCAACACGGGACGAGGACCGGUACGGCCGCCACUCGUGCAGUGAUGUUGCACGAUGGUGACGGAGA [Queronmaan] | 95.7 | 87.6 | 94.2 | 86.9 | 217 |
| UACCUAUUAUUAACACUAUAUACAACUGAAGGAGCGACAAUAAAGUCAGGUAGGUCGCAGAAUUAAUGAGUGAUGUUCAUUUUUA [JR_ExcArginiA_Sub014] | 84.3 | 136 | 95.3 | 110 | 59.7 |
| GUAUCGCUAGGAGGAUAUUUCAAAUAAUAAAUAAAUGGAUAUACGGAGUGAUGUUCCGAUUUACGGAAAGAAGGCCUAGUGAUAC [FMN B 1] | 136 | 179 | 194 | 190 | 171 |
| AACGCUCAAUAGAGAGUGAUGUUCUCUAUACGAGGACCGGUACGGCCGCCACUCGAAUGUAUAGCGAAACGCUAUACACAGUGGU [Tryp A SS t2] | 155 | 147 | 152 | 146 | 150 |
| UGUCAUUGGUCGGCCGCCACUUCGUGUGGAGUGAUGUUUUGUAGAUUGUGUUGAAAGGUAUGGUGAAGGACCGGGACCGAUGACU [FiskerMod 21 - Jieux - Same State - Tryptophan B] | 1100 | 368 | 1090 | 242 | 997 |
| ACGCGCGCGAGUGAUGUUCGGAGCGGCUGGCAGGAUAUGUAGCAAUGCAGAAGGGUCGUGGCGCUCCCUCCUGAAGGAGGGAGCG [#2 Exclusion - FMN A Attempt #25 (HarryS)] | 198 | 307 | 351 | 432 | 347 |
| GUAGAUAGGCUACAUCUCUAGUCUAUAGACUAGGAUAUCAGGAAACUGAGAAGGAGUCUCAUUGGAGUGAUGUUCCAAGAAUAAU [KL-SSFMN-A15] | 120 | 115 | 114 | 133 | 85.1 |
| UCGCACCUGUGGGCGAGGCCUAUAAUUGUCAAGGAUAUAGAUCAUUCUAGAAGGUGACACUUCGCGAGUGAUGUUCGGGAAAUGC [theeternabot_sameState_KL_FMN_A_8] | 386 | 212 | 273 | 245 | 179 |
| UAACUUGCAGUGAUGUUGCAAGAACUGGAUACCAGCAUGGAAACAUGCCCUUGGCAGCCAGAAGCUGGCUGCUUGUAAUGUCAGC [Design6] | 162 | 158 | 170 | 131 | 138 |
| AUAUGCAGGAGAAGGAGCGUCGUUGCAAGUGAUGUUUGCAAGCGAGCUUACUAUAUACGACGACAGGUAGGUCGCUCCUGCGUAA [Arg B Ex t2] | 68.8 | 61.7 | 64.8 | 58.1 | 67.2 |
| GAUGAUCGCGCGGCCGCCACUGGUCAGUGAUGUUGACAUUAAUGCGCCGAGUAGUAACGGCGCAGCAGGACCGGGCGCGAUGUAG [#12 K4 Tryptophan B Same State] | 144 | 141 | 145 | 121 | 163 |
| GACUCAUGUAGAAGGAGCGUCAGAAGUUAUAGACAUGAGUGAUGUUCAUGUUAGCUGAUUUGACAGGUAGGUCGCUACAGCAGGA [KL-SSArg B16 #analogue] | 126 | 100 | 126 | 114 | 121 |
| UGUAAGCGCGUAGAUACCAGCAGACGAGUGAUGUUCGAGAGAUUAAGGAAAAGAAAGUGAUGCCCUUGGCAGCUAAUCAUAAGCG [whbob_Ex_Theo_B_sa95] | 278 | 300 | 288 | 323 | 182 |
| UCUCGGGCCAGUGAUGUUGGCGGCAAGUGGCGAGGACCGGUACGGCCGCCACUCGGCGCAGCAGCGGAGUGAUGUUUCGUGAGUA [Same State Tryptophan A GF 16] | 297 | 1240 | 1230 | 387 | 675 |
| CUCACAGUGAUGUUGUGGGCCGAGAGUGAUACCAGCCGUAUUUGUGGCCCUUGGCAGCGCAGAACCAGUGAUGUUGGUUACUUGG [Same State Theophylline A GF 23] | 229 | 286 | 271 | 277 | 238 |
| GCCGUAGAUUGAAGGAGCGUGGACCUAUCGCUUGAACAGUGAUGUUGUUUAUCUAGGAAGCCGCAGGUAGGUCGCAAUCUACGGC | 331 | 292 | 420 | 337 | 382 |
| UACAUAUCACUUUUUCUACAAUUAUUUAGUCAGGAUAUCGAUUAAACGAGAAGGGACAUUAUCAAGUGAUGUUUGAUAAUUCAAA [JR_Nu_SSFMNA_Sub028] | 156 | 129 | 118 | 159 | 124 |
| GAUAUAGUGAUGUUAUAUACUGAUAGACAACGAGGACCGGUACGGCCGCCACUCGAGAGGGUGAAAAUGAUGAUAAAAUAAUAAU [#01 K4 Tryptophan A Exclusion] | 341 | 283 | 341 | 374 | 269 |
| UCGAACGAUGGAAGGAGCGCUCGUCAGUCCUGCGAGUGAUGUUCGUGGGUAAAUAGUCGCGAGCAGGUAGGUCGCCAUCUUGAGC [Indiermaar] | 130 | 120 | 131 | 128 | 125 |
| AGCAGUCAACUCGAAACCAUCGAAGAUGGUCGAGGACCGGUACGGCCGCCACUCGGAGUGAUGUUCCGAAGACUGCAAAAUAAAA [#SwitchBubble 14] | 283 | 299 | 307 | 328 | 477 |
| UGUGUUUUUUUGAUGUUUGUUGUAAAAUGGCAGGAUAUCGUAGAGGCGAGAAGGGCUUUUAUGCGUUAUGAGUGAUGUUUGUAGG [qqdqmullin] | 316 | 297 | 315 | 336 | 241 |
| AUUUUUUUGUCAGGAUAUUAGUGUUGGUUUGGUUUGUUAGUGAUGUUGAUAUUUGUUUUAUGUAUUUAAGAAGGGAUUUAGCUGU [ppdemullin] | 391 | 359 | 346 | 427 | 278 |

| Sequence | apparent KD of K4 kissing-loop reporter (input ligand: FMN 200 uM) [nM] | apparent KD of K4 kissing-loop reporter (input ligand: arginine 13.2 mM) [nM] | apparent KD of K4 kissing-loop reporter (input ligand: none) [nM] | apparent KD of K4 kissing-loop reporter [1] [nM] | apparent KD of K4 kissing-loop reporter [2] [nM] |
| --- | --- | --- | --- | --- | --- |
| UGACUGGACUGAAGGAGCGCUAAAACUCCUAGUGAUGUUGGGAAAUAGAGACAAAGUCUCAAGCAGGUAGGUCGCAGUCUAGUCU [ArgBS 23 #SwitchBubble #StaticStem] | 166 | 200 | 163 | 197 | 169 |
| CCUAUCUCGUAGGAUACCAGACUAUGAUCUAUGAUCAAUGCCAUCACCGAGUGAUGUUCGGUCCCUUGGCAGCCUAUGAGAUGGG [#13 K4 Theophylline B Exclusion] | 166 | 147 | 159 | 221 | 154 |
| AGCAGUCACUCGAAAAACCAUCGAAGAUGGCGAGGACCGGUACGGCCGCCACUCGGAGUGAUGUUCCGAAGACUGCAAAAUAAAA [#SwitchBubble 15] | 350 | 438 | 368 | 313 | 435 |
| CACCAUGAAUUCUCUAGGAGUGAUGUUUUUCGAGGACCGGUACGGCCGCCACUCGGACGAGGACCGUGGGAGCGGCGAAGCGACU [wwegmullin] | 234 | 148 | 109 | 1070 | 101 |
| UGAUUGCCAGUGAUGUUGGCAGGGUCUGAAGGAGCGCGUGAAAACGCAGGUAGGUCGCAGUAUGGUGCCAAUUGAUCGAAAGAUC [KL-XArg-A3] | 226 | 186 | 223 | 210 | 170 |
| AUUUAAUUAACUGAUACCAGACUUUUUGUUUUGUUUAUUACUAGUGAUGUUAGUGUUUCUGUCCCUUGGCAGCAGUAUCUACUUA [JR_ExcTheophyB_Sub015] | 134 | 202 | 131 | 239 | 122 |
| CACCAUGAAUUCUCUAGGAGUGAUGUUUUUCGAGGACCGGUACGGCCGCCACUCGGACGAGGAACGUGGGAGCGGCGAAAAGACU [xzzmullin] | 70.6 | 64 | 285 | 83.9 | 121 |
| AUAAUAUUGCGAGGAUAUCCUUCCCACGUCGAAGUACCGUGCUUGAUGGAGUGAUGUUCGAUCAGAGGAGAAGGCGCGGUGUUGU [Same State FMN B GF23] | 734 | 543 | 656 | 611 | 571 |
| ACGUGCACCAGUGAUGUUGGAAAAUAUGAAGGAGCGGGAGAAAACCCAGGUAGGUCGCAUAAUAGCACGAGCCACGAAAGUGGCA | 191 | 81.4 | 122 | 196 | 107 |
| GGGUGGCAGGCGGCCGCCACUCUGAGCACCCACUGAGUGAUGUUCGUGGCGUAAGACUGUUCGUAGAGGACCGGGUUUGUUGUUC [Same State Tryptophan B GF 23] | 203 | 143 | 214 | 306 | 205 |
| AGAUUCGACACGGCCGCCACUUCCGGUGGCUGGUGUCAUGGUGCGCGUGAGUGAUGUUUAUGUGGAAGGACCGGGUGUUGAGUCU [whbob_Ex_Tryp_B_w41] | 597 | 525 | 730 | 751 | 872 |
| GCUAGGCAUGCAGGAUAUCGUGGAGUGAUGUUCCGUUGGCUGCUAGCGGAAAACGCUAGCAGCCUACGAGAAGGGCAUGCCUAGC | 192 | 356 | 425 | 410 | 368 |
| UCCUGCAAUCUGCCACGAAAGUGGAUUGAUACCAGAGUCGAAAGACUCCCUUGGCAGCGAGUGAUGUUCGUUGCAGGUAAAUAAA [MatMod 7 - Jieux - Exclusion - Theophylline A] | 181 | 178 | 175 | 170 | 149 |
| GGGAGUAGUGCGGCCGCCACUGAGAAAGAAGAAGAAUAUAGUGAUGUUAUAUAGGAAAGGAAGAACAGGACCGGGCAUUAGAGGG [SSTRyptB.C] | 163 | 171 | 147 | 243 | 131 |
| AGUACGGACGCGGCCGCCACUCAGGAGAAGAAGGUAGUGAUGUUGCUUAUGGAGAGAUCAAUCAAGAGGACCGGGUGCCGUGCAA [#07 K4 Tryptophan B Same State] | 285 | 340 | 426 | 534 | 338 |
| CCUUCUCUUGGUAGUGAUGUUAUCAAGGACAAGGAUAUCAUCUCAAUGAGAAGGUGUCCUUGAUAACAUGGAGGUCUGAAACAGA [Omei KL FMN A Exc C v8] | 65.5 | 352 | 174 | 455 | 615 |
| UAAGAAUAACAUGCAGUGAUGUUGCAUGUACGAGGACCGGUACGGCCGCCACUCGAGUCCUCGAACAUGCACCGAGGAAUAACAA [(H,1)-(H,2)-(Trp1)-(Trp2)-(T)'-(H)'-(T)''] | 201 | 118 | 116 | 161 | 402 |
| AAACAUCACUGGGAGUGAUGUUCUCAGUGACGAGGACCGGUACGGCCGCCACUCGCGAGAGAUAUAAUUAAGUAAUGACAUCAUU [Excl Tryptophan A V6] | 260 | 267 | 274 | 341 | 327 |
| AGCCGAAAGGCGAGUGCUGUCGCUCCGGAAGGAGCGCAGGAAACUGCAGGUAGGUCGCCGGAGUGAUGUUUUGGUGCAGCACUCA [Omei KL Arginine A Exc B v7] | 163 | 218 | 129 | 132 | 134 |
| UUAUAACCCAGUGAUGUUGGGUAGCGGCCACGAGGACCGGUACGGCCGCCACUCGAGGUUUAACCAGUGAUGUUGGACUAUAUAA [Same state Tryptophan A GF 4] | 51 | 35.2 | 47 | 34.5 | 23.7 |
| AAGCAGUCCCUUGUUGUCAUCGAAGAUGAACGAGGACCGGUACGGCCGCCACUCGGAGUGAUGUUCCGAUGGCUGCAAAAUAAAA [MatMod 21 - Jieux - Exclusion - Tryptophan A] | 101 | 96.7 | 105 | 101 | 108 |
